What was measured:
[1] = target: endogenous 14-3-3ε (UniProt P62258)
[2] = target: T1, FLAG-NS5-MTase (NS5 methyltransferase domain, aa 1-319) (dengue virus serotype 2, strain NGC, UniProt P14340 2492-2810); assay: FLAG affinity purification from HEK293T cells and mass spectrometry
T1 construct: domain: NS5 methyltransferase (aa 1-319); also called pEF-BOS-FLAG-NS5-MTase; not shown: FLAG tag

[3] = target: T2, GST-NS3 of HCV (strain Con1) (Hepatitis C virus, strain Con1, UniProt Q9WMX2 1027-1657); assay: GST pull-down in 293T cells, immunoblot with anti-14-3-3ε
T2 construct: domain: NS3; also called HCV NS3; NS3 of Hepatitis C virus
T2 sequence (Q9WMX2 1027-1657): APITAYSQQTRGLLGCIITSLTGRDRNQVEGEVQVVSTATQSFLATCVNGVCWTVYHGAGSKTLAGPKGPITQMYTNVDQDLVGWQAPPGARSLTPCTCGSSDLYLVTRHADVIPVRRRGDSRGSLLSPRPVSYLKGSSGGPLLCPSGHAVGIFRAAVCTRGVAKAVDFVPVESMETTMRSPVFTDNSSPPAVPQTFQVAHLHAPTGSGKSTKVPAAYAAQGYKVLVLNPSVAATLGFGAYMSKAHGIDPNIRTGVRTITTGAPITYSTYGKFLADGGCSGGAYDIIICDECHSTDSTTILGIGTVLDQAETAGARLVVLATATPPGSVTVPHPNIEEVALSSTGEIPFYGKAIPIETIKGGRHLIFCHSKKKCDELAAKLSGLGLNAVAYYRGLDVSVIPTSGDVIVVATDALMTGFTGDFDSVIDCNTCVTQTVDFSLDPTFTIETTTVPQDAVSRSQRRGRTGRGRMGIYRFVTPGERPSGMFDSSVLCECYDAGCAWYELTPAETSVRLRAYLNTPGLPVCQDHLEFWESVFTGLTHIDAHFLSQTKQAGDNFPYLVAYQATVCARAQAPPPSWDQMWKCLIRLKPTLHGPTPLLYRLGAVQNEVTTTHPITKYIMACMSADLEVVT

[4] = target: T3, endogenous RIG-I (human, UniProt O95786 1-925); assay: Co-IP with anti-RIG-I from SeV-infected cells, immunoblot with anti-14-3-3ε
T3 construct: also called retinoic acid-inducible gene-I
T3 sequence: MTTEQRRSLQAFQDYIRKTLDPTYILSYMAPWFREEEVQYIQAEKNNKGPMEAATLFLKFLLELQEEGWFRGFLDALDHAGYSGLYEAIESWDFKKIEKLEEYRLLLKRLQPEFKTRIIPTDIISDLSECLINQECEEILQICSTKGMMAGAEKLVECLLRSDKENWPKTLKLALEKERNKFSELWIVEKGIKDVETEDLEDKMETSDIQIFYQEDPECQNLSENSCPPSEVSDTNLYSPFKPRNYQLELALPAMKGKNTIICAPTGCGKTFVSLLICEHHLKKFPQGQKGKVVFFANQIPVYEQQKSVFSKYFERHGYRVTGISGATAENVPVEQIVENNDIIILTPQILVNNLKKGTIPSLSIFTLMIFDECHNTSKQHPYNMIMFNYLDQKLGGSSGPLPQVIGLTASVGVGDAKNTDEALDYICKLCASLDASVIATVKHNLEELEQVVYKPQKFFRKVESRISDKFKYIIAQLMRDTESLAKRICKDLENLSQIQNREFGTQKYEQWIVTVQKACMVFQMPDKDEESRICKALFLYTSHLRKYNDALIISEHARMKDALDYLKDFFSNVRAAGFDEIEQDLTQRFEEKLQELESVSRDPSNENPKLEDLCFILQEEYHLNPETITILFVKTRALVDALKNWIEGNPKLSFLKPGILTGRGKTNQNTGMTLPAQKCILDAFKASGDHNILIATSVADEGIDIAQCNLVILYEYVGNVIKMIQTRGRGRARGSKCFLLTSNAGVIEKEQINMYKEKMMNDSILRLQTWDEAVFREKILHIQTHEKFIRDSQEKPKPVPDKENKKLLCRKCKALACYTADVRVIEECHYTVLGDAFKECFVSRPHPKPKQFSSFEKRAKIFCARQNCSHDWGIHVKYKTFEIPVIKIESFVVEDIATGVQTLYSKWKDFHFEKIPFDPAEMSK

[5] = target: T4, RIG-I-FLAG (UniProt O95786 1-925); assay: in vitro binding assay on anti-FLAG beads, immunoblot
T4 construct: also called purified RIG-I-FLAG
T4 sequence: T3 sequence

Molecule: NS3 of DV2 NGC in infected Huh7 cells
- translocation of RIG-I to the MAVS-containing mitochondrial fraction (fractionation, immunoblot) [1]: RIG-I failed to translocate to the MAVS-containing mitochondrial fraction during DV infection

B1: endogenous 14-3-3ε (other)
chain: MDDREDLVYQAKLAEQAERYDEMVESMKKVAGMDVELTVEERNLLSVAYKNVIGARRASWRIISSIEQKEENKGGEDKLKMIREYRQMVETELKLICCDILDVLDKHLIPAANTGESKVFYYKMKGDYHRYLAEFATGNDRKEAAENSLVAYKAASDIAMTELPPTHPIRLGLALNFSVFYYEILNSPDRACRLAKAAFDDAIAELDTLSEESYKDSTLIMQLLRDNLTLWTSDMQGDGEEQNKEALQDVEDENQ
- binding result [2]: no binding
- binding result [3]: no binding
- binding result [4]: binds

B2: bacterially-purified recombinant human 14-3-3ε protein (NP_006752.1) (other)
chain: B1 chain
notes: also called recombinant (r) 14-3-3ε; r14-3-3ε
- binding result [5]: binds

— patent US20180185467A1 (Harvard, published 2018)
